We go through four molecules from patent US20190382503A1 (published 2019).

In assay [1] the target is T1, CD137 / 4-1BB (soluble antigen, form not stated) (UniProt Q07011 24-186, limits assumed).
T1 construct: also called biotinylated 4-1BB antigen; CD137 in ELISA
The assay is described as follows: ELISA. (In general: ELISA stands for enzyme-linked immunosorbent assay.)

Assay [2] has as its target T2, cynomolgus 5T4 on cells (cynomolgus macaque, UniProt Q4R8Y9 35-420).
T2 construct: whole, on cells; also called CHO-K1/cynomolgus 5T4
T2 sequence (looked up): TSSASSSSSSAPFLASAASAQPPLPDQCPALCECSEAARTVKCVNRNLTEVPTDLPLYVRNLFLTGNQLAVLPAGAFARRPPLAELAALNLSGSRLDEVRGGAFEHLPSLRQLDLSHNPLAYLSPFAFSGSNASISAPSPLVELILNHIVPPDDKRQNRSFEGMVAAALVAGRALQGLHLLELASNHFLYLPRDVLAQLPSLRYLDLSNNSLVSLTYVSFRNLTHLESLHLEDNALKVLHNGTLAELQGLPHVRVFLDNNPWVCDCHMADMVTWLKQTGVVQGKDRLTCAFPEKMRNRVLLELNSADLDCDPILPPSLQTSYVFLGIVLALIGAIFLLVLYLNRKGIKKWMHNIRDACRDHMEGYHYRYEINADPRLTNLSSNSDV
Nature of the assay: flow cytometry, CHO-K1/cynomolgus 5T4 transfectants (FIG. 14). The protocol:
(§1) Binding studies were performed by standard flow cytometry-based staining procedures two cell lines expressing 5T4:CHO-K1 cells (obtained from Alligator) transduced with human or cynomolgus macaque 5T4 and SKOV-3 human ovarian adenocarcinoma cells which express (human) 5T4. All labeling and washes were performed in U-bottom 96-well plates in saline buffer with 0.1% BSA and 2 mM EDTA. Cell were plated at approximately 100,000 cells per well and incubated with a range of 100 nM to 0.05 nM concentrations of test molecules in 50 μL volume/well, for 30 minutes on ice. Cells were washed three times then incubated for another 30 min on ice with fluorescently-labeled secondary polyclonal antibody, F(ab′)² goat anti-human IgG (Jackson ImmunoResearch Laboratories). The cells were then washed twice and the samples acquired in a BD LSRII or a Symphony A3 flow cytometer. The sample files were analyzed using FlowJo software; the mean fluorescence intensity (MFI-mean) or median fluorescence intensity (MFI-median) of the live population of cells in each well was calculated after gating on live cells (forward vs side scatter). Nonlinear regression analysis to determine EC₅₀ values was performed in GraphPad Prism 6® graphing and statistics software.
All the constructs bound with EC₅₀ values in the range of 1 to 3 nM. […]
(Flow cytometry measures light scatter and fluorescence of single cells or particles in a stream.)

In assay [3] the target is T3, recombinant human 5T4 extracellular domain (human, UniProt Q13641 32-355).
T3 construct: The entry starts at Met 1; also called Hu 5T4; 5T4 ECD
T3 sequence: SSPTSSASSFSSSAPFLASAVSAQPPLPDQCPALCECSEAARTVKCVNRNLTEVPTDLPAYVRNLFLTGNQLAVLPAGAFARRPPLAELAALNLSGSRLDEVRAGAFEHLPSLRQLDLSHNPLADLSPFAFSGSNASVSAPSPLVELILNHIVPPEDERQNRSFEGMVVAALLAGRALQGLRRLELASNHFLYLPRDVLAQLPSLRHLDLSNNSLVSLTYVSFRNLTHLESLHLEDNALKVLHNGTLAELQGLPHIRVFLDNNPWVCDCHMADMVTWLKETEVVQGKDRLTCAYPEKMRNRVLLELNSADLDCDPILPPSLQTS
Nature of the assay: SPR, Biacore T200, bispecific captured by anti-human IgG, monomeric ECD injected, 1:1 model. The protocol:
(§2) Goat anti-human IgG F(ab′)2 fragment (Jackson ImmunoResearch) at 20 μg/mL in 10 mM sodium acetate (pH 4.5) was immobilized at a density of 2000 response units (RU) onto the flow cell of a CM5 research-grade sensor chip (GE) by standard amine coupling chemistry. Each bispecific variant at 200 nM in HBS-EP+ buffer was captured in the flow cell with the immobilized anti-human IgG at a flow rate of 50 μL/min for 60 sec to reach ˜500 RU response, leaving one flow cell surface unmodified as the reference. Following a 30 sec stabilization period, four different concentrations of each ECD (0, 20, 60, and 180 nM) were injected at 50 μL/min for either 120 sec followed by a 240 sec dissociation period (for 5T4) or 90 sec followed by a 180 sec dissociation period (for 4-1BB). Regeneration was achieved by duplicate injections of 10 mM glycine (pH 1.5) at a flow rate of 50 μL/min for 30 sec followed by HBS-EP+ buffer stabilization for 1 min.
(§3) Sensorgrams obtained from kinetic SPR measurements were analyzed by the double subtraction method. The signal from the reference flow cell was subtracted from the analyte binding response obtained from flow cells with immobilized or captured ligands. Buffer reference responses were then averaged from multiple injections. The averaged buffer reference responses were then subtracted from analyte binding responses, and the final double-referenced data were analyzed with Biacore T200 Evaluation software (2.0, GE), globally fitting data to derive kinetic parameters. All sensorgrams were fitted using a simple one-to-one binding model.

Assay [4] deals with T4, recombinant human CD137 extracellular domain (human, UniProt Q07011 24-186).
T4 construct: The entry starts at Met 1; also called Hu CD137; 4-1BB ECD
The description is as above. The protocol: as §2, §3

Assay [5] has as its target T2, cynomolgus 5T4 on cells. Nature of the assay: flow cytometry, CHO-K1/cynomolgus 5T4 transfectants (FIG. 7). The protocol:
as §1

The target in another assay is T5, human 5T4 on cells (human, UniProt Q13641 32-420).
T5 construct: Human 5T4 on transfected cells (CHO-K1, CT26, B16) or endogenous on human tumour lines; the cell line is named under assay; also called trophoblast glycoprotein; TPBG
T5 sequence: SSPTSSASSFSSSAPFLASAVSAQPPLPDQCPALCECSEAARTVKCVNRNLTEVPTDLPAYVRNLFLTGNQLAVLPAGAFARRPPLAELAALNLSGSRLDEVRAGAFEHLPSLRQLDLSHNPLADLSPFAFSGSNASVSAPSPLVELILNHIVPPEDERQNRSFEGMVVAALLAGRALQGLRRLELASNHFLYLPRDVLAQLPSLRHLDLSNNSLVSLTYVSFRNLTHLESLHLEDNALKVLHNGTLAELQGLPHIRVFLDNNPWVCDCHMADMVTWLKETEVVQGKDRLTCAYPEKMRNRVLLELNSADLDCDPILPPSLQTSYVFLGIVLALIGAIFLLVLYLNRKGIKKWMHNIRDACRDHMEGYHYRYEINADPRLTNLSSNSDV
The assay is described as follows: flow cytometry, SKOV-3 cells (FIG. 6). The protocol: as §1
The differences in EC₅₀ values between constructs were more evident when binding assays were conducted on SKOV-3 cells. […]

A word on the EC50: it is the concentration needed to bring the measured effect to its halfway point. Read a low EC50 as a more potent agent. A word on the Kd: it is a measure of binding affinity in units of concentration. In general, koff refers to a measure of how fast the partners let go of each other. As usually defined, the kon is the second-order rate constant of association.

B1: ALG.APV-210 (bispecific antibody)
chain: EVQLLESGGGLVQPGGSLRLSCAASGFTFSHGSMYWVRQAPGKGLEWVSSISSGSGSTYYADSVKGRFTISHDNSKNTLYLQMNSLRAEDTAVYYCARSSYYGSYYSIDYWGQGTLVTVSSGGGGSGGGGSGGGGSGGGGSDIQMTQSPSSLSASVGDRVTITCRASQSISSYLNWYQQKPGKAPKLLIYAASSLQSGVPSRFSGSGSGTDFTLTISSLQPEDFATYYCQQYYDNLPTFGQGTKLEIKEPKSSDKTHTCPPCPAPEAAGAPSVFLFPPKPKDTLMISRTPEVTCVVVDVSHEDPEVKFNWYVDGVEVHNAKTKPREEQYNSTYRVVSVLTVLHQDWLNGKEYKCAVSNKALPAPIEKTISKAKGQPREPQVYTLPPSRDELTKNQVSLTCLVKGFYPSDIAVEWESNGQPENNYKTTPPVLDSDGSFFLYSKLTVDKSRWQQGNVFSCSVMHEALHNHYTQKSLSLSPGSGGGGSGGGGSGGGGSPSEVQLLESGGGLVQPGGSLRLSCAASGFTFSSYAMSWVRQAPGKCLEWVSAISGSGGSTYYADSVKGRFTISRDNSKNTLYLQMNSLRAEDTAVYYCARYYGGYYSAWMDYWGQGTLVTVSSGGGGSGGGGSGGGGSGGGGSDIQMTQSPSSLSASVGDRVTITCRASQSISSFLNWYQQKPGKAPKLLIYAASSLQSGVPSRFSGSGSGTDFTLTISSLQPEDSATYYCQQTYGYLHTFGCGTKLEIKR
notes: scFv-Fc-scFv (ADAPTIR) homodimer with stabilizing disulfide in the 1210 scFv; also called ALG.APV-223; 5T4-CD137 bispecific antibody
On to B1, for which, in assay [1], a half-maximal effect (EC50) was put at 0.7 nM. Besides, in the assay with cynomolgus 5T4 on cells [2], the binding result is “binds”. For the same molecule, in assay [3], the Kd turned out to be 79 nM, the koff was 0.0012 s⁻¹ and the kon worked out at 15000 M⁻¹ s⁻¹. Besides, in assay [4], the equilibrium dissociation constant (Kd) was found to be 59 nM, the koff was determined as 0.033 s⁻¹ and the kon amounted to 550000 M⁻¹ s⁻¹.

B2: ALG.APV-187 (bispecific antibody)
chain: EVQLLESGGGLVQPGGSLRLSCAASGFTFSHGSMYWVRQAPGKGLEWVSSISSGSGSTYYADSVKGRFTISHDNSKNTLYLQMNSLRAEDTAVYYCARSSYYGSYYSIDYWGQGTLVTVSSGGGGSGGGGSGGGGSGGGGSDIQMTQSPSSLSASVGDRVTITCRASQSISSYLNWYQQKPGKAPKLLIYAASSLQSGVPSRFSGSGSGTDFTLTISSLQPEDFATYYCQQYYDNLPTFGQGTKLEIKSSEPKSSDKTHTCPPCPAPEAAGAPSVFLFPPKPKDTLMISRTPEVTCVVVDVSHEDPEVKFNWYVDGVEVHNAKTKPREEQYNSTYRVVSVLTVLHQDWLNGKEYKCAVSNKALPAPIEKTISKAKGQPREPQVYTLPPSRDELTKNQVSLTCLVKGFYPSDIAVEWESNGQPENNYKTTPPVLDSDGSFFLYSKLTVDKSRWQQGNVFSCSVMHEALHNHYTQKSLSLSPGSGGGGSGGGGSGGGGSPSEVQLLESGGGLVQPGGSLRLSCAASGFTFSSYAMSWVRQAPGKCLEWVSAISGSGGSTYYADSVKGRFTISRDNSKNTLYLQMNSLRAEDTAVYYCARYYGGYYSAWMDYWGQGTLVTVSSGGGGSGGGGSGGGGSGGGGSDIQMTQSPSSLSASVGDRVTITCRASQSISSFLNWYQQKPGKAPKLLIYAASSLQSGVPSRFSGSGSGTDFTLTISSLQPEDSATYYCQQTYGYLHTFGCGTKLEIKR
notes: scFv-Fc-scFv (ADAPTIR) homodimer with stabilizing disulfide in the 1210 scFv
Regarding B2, in the assay with cynomolgus 5T4 on cells [5], the binding result was “binds”. Also, in assay [3], the equilibrium dissociation constant (Kd) amounted to 35 nM, the off-rate (koff) amounted to 0.00072 s⁻¹ and the kon was found to be 21000 M⁻¹ s⁻¹. For the same molecule, in assay [4], the Kd is 73 nM, the koff came out at 0.027 s⁻¹ and the association rate constant (kon) turned out to be 370000 M⁻¹ s⁻¹.

B3: ALG.APV-196 (bispecific antibody)
chain: EVQLLESGGGLVQPGGSLRLSCAASGFTFSYGSMYWVRQAPGKGLEWVSSISSGSGSTYYADSVKGRFTISHDNSKNTLYLQMNSLRAEDTAVYYCARSSYYGSYYSIDYWGQGTLVTVSSGGGGSGGGGSGGGGSGGGGSDIQMTQSPSSLSASVGDRVTITCRASQSISSYLNWYQQKPGKAPKLLIYAASSLQSGVPSRFSGSGSGTDFTLTISSLQPEDFATYYCQQYYDNLPTFGQGTKLEIKSSEPKSSDKTHTCPPCPAPEAAGAPSVFLFPPKPKDTLMISRTPEVTCVVVDVSHEDPEVKFNWYVDGVEVHNAKTKPREEQYNSTYRVVSVLTVLHQDWLNGKEYKCAVSNKALPAPIEKTISKAKGQPREPQVYTLPPSRDELTKNQVSLTCLVKGFYPSDIAVEWESNGQPENNYKTTPPVLDSDGSFFLYSKLTVDKSRWQQGNVFSCSVMHEALHNHYTQKSLSLSPGSGGGGSGGGGSGGGGSPSEVQLLESGGGLVQPGGSLRLSCAASGFDFESYAMSWVRQAPGKCLEWVSAISGSGGSTYYADSVKGRFTISRDNSKNTLYLQMNSLRAEDTAVYYCARYYGGYYSAWMDYWGQGTLVTVSSGGGGSGGGGSGGGGSGGGGSDIQMTQSPSSLSASVGDRVTITCRASQSIRSALNWYQQKPGKAPKLLIYAASSLQSGVPSRFSGSGSGTDFTLTISSLQPEDFATYYCQQTYGYLHTFGCGTKLEIKR
notes: scFv-Fc-scFv (ADAPTIR) homodimer
Consider B3, for which the binding result in the assay with human 5T4 on cells and with cynomolgus 5T4 on cells [5] was “binds” each time.

B4: ALG.APV-198 (bispecific antibody)
chain: EVQLLESGGGLVQPGGSLRLSCAASGFTFSHGSMYWVRQAPGKGLEWVSSISSGSGSTYYADSVKGRFTISHDNSKNTLYLQMNSLRAEDTAVYYCARSSYYGSYYSIDYWGQGTLVTVSSGGGGSGGGGSGGGGSGGGGSDIQMTQSPSSLSASVGDRVTITCRASQSISSYLNWYQQKPGKAPKLLIYAASSLQSGVPSRFSGSGSGTDFTLTISSLQPEDFATYYCQQYYDNLPTFGQGTKLEIKSSEPKSSDKTHTCPPCPAPEAAGAPSVFLFPPKPKDTLMISRTPEVTCVVVDVSHEDPEVKFNWYVDGVEVHNAKTKPREEQYNSTYRVVSVLTVLHQDWLNGKEYKCAVSNKALPAPIEKTISKAKGQPREPQVYTLPPSRDELTKNQVSLTCLVKGFYPSDIAVEWESNGQPENNYKTTPPVLDSDGSFFLYSKLTVDKSRWQQGNVFSCSVMHEALHNHYTQKSLSLSPGSGGGGSGGGGSGGGGSPSEVQLLESGGGLVQPGGSLRLSCAASGFDFESYAMSWVRQAPGKCLEWVSAISGSGGSTYYADSVKGRFTISRDNSKNTLYLQMNSLRAEDTAVYYCARYYGGYYSAWMDYWGQGTLVTVSSGGGGSGGGGSGGGGSGGGGSDIQMTQSPSSLSASVGDRVTITCRASQSIRSALNWYQQKPGKAPKLLIYAASSLQSGVPSRFSGSGSGTDFTLTISSLQPEDFATYYCQQTYGYLHTFGCGTKLEIKR
notes: as for B3
As to B4, the binding result with human 5T4 on cells and with cynomolgus 5T4 on cells [5] was “binds” each time.
